{"source": "the DeepSol protein solubility set", "data": [{"experiment": "soluble on expression in E. coli; label from the status in PepcDB or PDB records", "values": [{"sequence": "MPTKLSNKYHDEIEQNGFTVVRNFLSPQEIEKYTKASEALVQYARDGNWPHVRTRGKQFPPWPKNFSPDIWGVSGLLHPDLGELSKPFHDLYSDEKLLNVVCDILLIEKTDLSMELLNMLINPLTDFELDWHRDTIKPEVTPEEEAEDLLKFPYAGAQFNLALTEDDCLIAIPGSHNRVRTTEEREKTIDPNRRKEFITGEIRVQLQPGDLVFYNNNILHRAAYSSKNKRLTLHGSYGNVNQGKSRAKGILQHGVAEWLPRLETKNTNLKMLQEKLLNLAKEFEGVELGYALDG", "soluble on expression in E. coli": "soluble"}, {"sequence": "MPTSIQFQRSSTAAEAANATVRNYPHHHQKQVQKVSLTRGMADVPEHVELSHTHVVGPSQCFSVVVQDVEAPVSTVWSILSRFEHPQAYKHFVKSCHVVIGDGREVGSVREVRVVSGLPAAFSLERLEIMDDDRHVISFSVVGGDHRLMNYKSVTTVHESEEDSDGKKRTRVVESYVVDVPAGNDKEETCSFADTIVRCNLQSLAKLAENTSKFS", "soluble on expression in E. coli": "not soluble"}, {"sequence": "MPTTVNDLLRTYPADLGGVDREAMARCIEECLRCAQACTACADACLSEPTVADLTKCIRTDMDCADVCTATAAVLSRHTGYDANVTRAVLQACATVCAACGDECARHAGMHEHCRVCAEACRSCEQACQELLAGLGLEHHHHHH", "soluble on expression in E. coli": "not soluble"}, {"sequence": "MPTVPIPARKAATTFDTPSKHERIEVKPPITRFIRRAITRVFGVWSHISTQVVRQWGWYPRVEPYVGYGTGDYSRLICRTVYAPKHAQSGELIRGIRGMLAVPAPRTHVQASIDDMPLNTVQIGVSEVYDKVDRTRDLGSEYAISDSAGYLDLVAEHRLVPGIHRVSYSVANRKPVSANLYTIPASAKVGIISDVDDTIMITQAPVPWKAAYNLLFLDPKKKASVPGMSVLFTRIADLFPGAPFFYLSTSPWNVESSIRNFITDHGFPEGPLLLRDLDPRPKTFVPTGPQHKLEFAEQLMADFPDMKFILVGDDGQKDPTTYATIARRYPGRVLAIVIRELSPRESTGLASVTGLTSTQPTPVTDVPVFTGTTGSNILKTMLPYLKTVLRLEHHHHHH", "soluble on expression in E. coli": "not soluble"}, {"sequence": "MPVEEKKKGMAIHSSLSLSLSLSLSLSLSLCDSEREG", "soluble on expression in E. coli": "not soluble"}, {"sequence": "MPVKCPGEYQVDGKKVILDEDCFMQNPEDWDEKVAEWLARELEGIQKMTEEHWKLVKYLREYWETFGSCPPIKMVTKETGFSLEKIYQLFPSGPAHGACKVAGAPKPTGCV", "soluble on expression in E. coli": "soluble"}, {"sequence": "MPYYVYLLACGKHGTLYLGVTNDLVRRVHEHRSKATPGFSEHYGVGRLVWFEIYHDAITAITREKQLKKWRRDWKVRLIENQNPDWVDLYPGICR", "soluble on expression in E. coli": "not soluble"}, {"sequence": "MQAEGEKSDKISKISTGIPRVDELLYGGFDGRDNIVVSGNNFSQKRSFIYNFIKSSANSGMKVIIINVDGSSESLLADLARRGTDLENIILLDGFSKNFQEKVPPNAEVIDDPSNVSSVLKQYMLRAQKEKDFIFVFLSATPYLMDFNDQNRKFFVQLVHWNRKNSLLSTYVLDDFVGQTTAEWFAYMMDFSLYFKNDGDYDYMRVLSLKPVRTKDWIRIYKDSDVFTLGSFNVERIR", "soluble on expression in E. coli": "not soluble"}, {"sequence": "MQALILEQQDGKTLASVQHLEESQLPAGDVTVDVHWSSLNYKDALAITGKGKIIRHFPMIPGIDFAGTVHASEDPRFHAGQEVLLTGWGVGENHWGGLAERARVKGDWLVALPAGLSSRNAMIIGTAGFTAMLCVMALEDAGIRPQDGEVVVTGASGGVGSTAVALLHKLGYQVAAVSGRESTHGYLKSLGANRILSRDEFAESRPLEKQLWAGAIDTVGDKVLAKVLAQMNYGGCVAACGLAGGFALPTTVMPFILRNVRLQGVDSVMTPPARRAEAWARLVKDLPESFYAQAATEITLADAPKFADAIINNQVQGRTLVKIK", "soluble on expression in E. coli": "not soluble"}, {"sequence": "MQALTTYKCIEKGIVVWLTGLPGSGKTTIATRLADLLQKEGYRVEVLDGDWARTTVSEGAGFTREERLRHLKRIAWIARLLARNGVIVICSFVSPYKQARNMVRRIVEEEGIPFLEIYVKASLEEVIRRDPKGLYKKALKGELENFTGITDPYEPPENPQLVLDTESNTIEHNVSYLYSLVKAVIE", "soluble on expression in E. coli": "soluble"}, {"sequence": "MQANSEEYCELCGSQIRGKGITVSYEGSIITVCNSCYDRIRKHAVIVKADSKKSETRKKATLKPPKMENAELEIVTDYYKIIKTAREQLGISQQQLAQKLKVSENIVKRFESGKLKPTISQARQLEKILGIKLVTPLENNEESEKEFDDTGLTLGDVVNIKEGKK", "soluble on expression in E. coli": "not soluble"}, {"sequence": "MQAYSNPGYSSFPSPTGLEPSCKSCGAHFANTARKQTCLDCKKNFCMTCSSQVGNGPRLCLLCQRFRATAFQREELMKMKVKDLRDYLSLHDISTEMCREKEELVLLVLGQQPVISQEDR", "soluble on expression in E. coli": "soluble"}, {"sequence": "MQDEESLMWVQFGGDDGKQVVAELAMRADKYAVRTRDNSSPVLTGFEGVPTYAYSPAWVIEGRFEPYAEPMDVPIGTANPLVDGVHRSVGEVVFRAPGVPHEIRLHAEEEKLGALNVTFHDETNGDTTDEWRKVFIPRPRPDGSVVIDFNRAINYPSAFTPYGTCPMPVRGNSVDVRVEAGEKLPQGLEHHHHHH", "soluble on expression in E. coli": "soluble"}, {"sequence": "MQDLIKQYNTTLRQLREAQKDAKEEDVKVLTDMISDITYSLEWMKKARRPGNRRGVERLAAYQRERACDPLLMQRYFRSMDDNLYEWDNHQQEHSIGEWDKVRLEDALSLLTEREKEVYLMSRGYCLTYREIARYLDITCSTVQSMIERAEKKIARQVNESLFCNCG", "soluble on expression in E. coli": "not soluble"}, {"sequence": "MQDLLTLRFLDTYDNILFIGNSGVGKTHLAVSIGLECIDRGLSCLFITSTELVNRLIRAHKRGTSETMLKKYSGYSVLIIDEVGYLPFSKEGSNLLFQLINMRYERKSTIVTTNIPLSQWSEIFGNKKLTNALLDRLVHHSKLIQITGPSYRMKSYSENKEVKSLEHHHHHH", "soluble on expression in E. coli": "soluble"}, {"sequence": "MQDRNFDDIAEKFSRNIYGTTKGQLRQAILWQDLDRVLEEIGGRKLRVLDAGGGEGQTAIKMAERGHQVTLCDLSGEMIARARQAAEAKGVSKDMHFIQCPAQDVASHLESPVDLILFHAVLEWVADPVGVLETLWSVLRPGGALSLMFYNANGLLMHNMVAGNFDYVQAGMPKRKKRTLSPDYPRDPAQVYQWLEAIGWQITGKTGVRVFHDYLREKHQQRDCYETLVELETRYCRQEPYISLGRYIHVTAIKSPALAADARITYE", "soluble on expression in E. coli": "not soluble"}, {"sequence": "MQELQLKVTQAQVEIIDREKFEQNINEVVAKYQNYAVTAGTIKDDKQVLADLRKLKKQLSDERIKVKKELSKPADDIDGYIKQASKPLDDTIDKIATDVKEFEDHQKALRLDTVKSYLSNKASEYMLDPRIFDEKAMEYTKAGNFMADGVTLKKVTMKSLEDLVTFEYQKEQEVEKAKATISGQCAEYGMTDQPYIRMLKEMTLVEVLGQIKADYLAEKQK", "soluble on expression in E. coli": "not soluble"}, {"sequence": "MQEVAMSSQEASKMLRTYNIAWWGNNYYDVNELGHISVCPDPDVPEARVDLAQLVKTREAQGQRLPALFCFPQILQHRLRSINAAFKRARESYGYNGDYFLVYPIKVNQHRRVIESLIHSGEPLGLEAGSKAELMAVLAHAGMTRSVIVCNGYKDREYIRLALIGEKMGHKVYLVIEKMSEIAIVLDEAERLNVVPRLGVRARLASQGSGKWQSSGGEKSKFGLAATQVLQLVETLREAGRLDSLQLLHFHLGSQMANIRDIATGVRESARFYVELHKLGVNIQCFDVGGGLGVDYEGTRSQSDCSVNYGLNEYANNIIWAIGDACEENGLPHPTVITESGRAVTAHHTVLVSNIIGVERNEYTVPTAPAEDAPRALQSMWETWQEMHEPGTRRSLREWLHDSQMDLHDIHIGYSSGIFSLQERAWAEQLYLSMCHEVQKQLDPQNRAHRPIIDELQERMADKMYVNFSLFQSMPDAWGIDQLFPVLPLEGLDQVPERRAVLLDITCDSDGAIDHYIDGDGIATTMPMPEYDPENPPMLGFFMVGAYQEILGNMHNLFGDTEAVDVFVFPDGSVEVELSDEGDTVADMLQYVQLDPKTLLTQFRDQVKKTDLDAELQQQFLEEFEAGLYGYTYLEDELEHHHHHH", "soluble on expression in E. coli": "not soluble"}, {"sequence": "MQFYQPPAQQHLARSTPPPNFAQPYGMGMRPHEEETRQIMNLDSQQTHSSSPTSSWNQPYGQMSNPYQQRGPSLYAPPGPPVMHQNGPPGVVPTSNPYYQPPVPPQHHHMQPQAPMMSPGMHGQQQQQPYYNTQSPLTGTPPSMSYGTPQIPAPPPTSNGSAPMFNFSKPRNSNEGSLTNGGGGAAHRRKKHNDLSSPRYSSNSNEDVDGSVFPDMADFPLLDVVQSKAKKDAGRKPCRPHLCEQSRMLISRVCHFHREFIKRLPARHPLVNSPFSKPDQWTSQIMGISLATVRKCIDMAVDEEVFTRCTDKNLVNLTPSERAEREELLSKLSTVFEDEKSLGAGTAGMTIAEYSPRRSYSNTLLRQSTDDKSSTSSYNANGGEYGGSTETTLLNLDDHSNSSKDYGMTPTTPAAPVASSVTSDLGGGGGQVFEEIGAIGGGMSTESSLDDKSAVKIPKRGRPCKAPGTTATNKSTKRKESQDGGQEVGGPVEDKDDHEKKTEDEDETNEETEKIEVQQADQAEREDDAASSEGTNRSETATPELATDTTAVAKKTRSAAARRKNTKTVDDEFAGATKKKRGSVTAATAGIGGDDENSDHKMVTRARSRQP", "soluble on expression in E. coli": "not soluble"}, {"sequence": "MQGDAAEKARLRGERLAARDALTPAERQQKSLSMTAHGVSGIPFAPGTVISGFMPIRSEVDTRPLMEALRARDGRLVLPVVLDQETIVFRVFEADTPLVKTGFGTTGPGEDAEVLDPHILLVPLSVFDGEGQRIGYGAGHYDRAIARLHAKGRQPVLIGIAFDCQEVASVPAEPHDVALHAVLTESGLRWFSAQRLEHHHHHH", "soluble on expression in E. coli": "not soluble"}, {"sequence": "MQGLQLPQIYFSAAERRPKFVMKTGLSATEKNEVIKAAYRQIFERDITRAYSLSISDLESKVKNGDISMKEFVRRLAKSPLYQKQFYQPFINSRVIELAFRHILGRGPSSREEVQKYFSIISNGGLPALVDALVDSAEYSDYFGEETVPYLRGLGQEALEHHHHHH", "soluble on expression in E. coli": "not soluble"}, {"sequence": "MQGNTMYKFEVFKDKAGEFRFRFRASNGEIMFSSEGYKAKASVLNAIESIKKNSPGAETVDQTTATV", "soluble on expression in E. coli": "soluble"}, {"sequence": "MQHLTERMTQIAKLLNSSANNPDIDIPDFLTEIKDYSEFSVTDENGTYLHWDKFRRIHTEDTRMKWRAVKESRKKIQKPIDFPFEHQFWFCIPDSLQARLHLIDKSCGSSIGTSSLGGFGRSEQNRFLLKSLIMEEAITSAQLEGAATTRKVAKDMLKSQRKPKTKDEIMIVNNYHLMKKAVELKNTPLSVEMILDLHRIATSNAIENKAEPGQFRQDDEIFIADINGNSLYQPPPHGQVHTLMEEVCAFANNTYDGVENPFIHPVVQAIILHFLIGYIHPFGDGNGRTARALFYWFMLKNGYWLFEYISISRLLKNAPAQYAKSYLYAETDDLDLTYFIYYQCDIIKRAVADLEHYISDKQKHQQEFKAAIAQYTEKIGKLNQRQIGILQKAVEESGKIFTAQEIANQYGISLNTARSDLSKLGEYRFLVPFKSGNALEYVAPQDLLERLEKK", "soluble on expression in E. coli": "not soluble"}, {"sequence": "MQIKDEILSLLKRGKNLLAFSYGSDSSVLFYLLMQEKIDFDLVMINYKTRKNSDLEELKAKELALKFHKKIFIKHAPKFQSNFEKKARDFRYDFFEKICLEQGYDHLILAHHLNDQFEWFLMQLSRGAGLAEILGMQECEKRSNYTLLRPLLFISKDEISSFLKEKDIFYFHDES", "soluble on expression in E. coli": "not soluble"}, {"sequence": "MQIKTYKIKDICDIKRGRVISKLYIKNNPGEFPVYSSATVNNGEIGRIKDCDLKGEYVTWTTDGAQAGSVFYRNGQFNATNVCGILKVNNDEIYPKFLAYALRLKAPKFVNYACPIPKLMQGTLAEIELDFTSKKIQEKIATILDTFTELSAELSAELSAELSAELRERKKQYVFYSDYLLNPKNWK", "soluble on expression in E. coli": "soluble"}]}]}
